Square brackets hold non-standard residues; d marks the D form. Ends that are not written are not given here. * marks the point of attachment. Fluorescein(5-NHCOCH2) = O=C(C*)Nc1ccc2c(c1)C(=O)OC21c2ccc(O)cc2Oc2cc(O)ccc21; pS = N[C@@H](COP(=O)(O)O)C(=O)O
What was measured:
HisKIX [1] = target: T1, HisKIX (UniProt P45481 586-672); assay: FP, fluorescein-labelled peptide titrated with HisKIX, 25 C
T1 construct: range 586-672; the residue numbers fit mouse CBP; also called His-tagged CBP KIX domain; CBP KIX; not shown: amino-terminal hexahistidine tag and linker of pET15b

HisKIX [2] = target: T1, HisKIX; assay: FP with HisKIX; end of the range assigned by Table 1
HisKIX [3] = target: T1, HisKIX; assay: FP with HisKIX

T1 sequence (P45481 586-672): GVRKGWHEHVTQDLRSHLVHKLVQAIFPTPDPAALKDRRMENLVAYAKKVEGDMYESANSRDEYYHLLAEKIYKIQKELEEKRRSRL

GLSPYTEWGDDAPVRRLSFFYILLDLYLDAPGVC(acetamidofluorescein)-NH2 (designed binder) [PPKID7^U] showed a Kd (HisKIX [1]) of 2.3 µM.

In the case of GASPHTSSGDDAPVRRLSFFDILLDLYLDAPGVC(acetamidofluorescein)-NH2 (designed binder, not fully specified, also called PPKID3 (unphosphorylated)) [PPKID3^U], the “fold change in affinity against peptide C^U” value (HisKIX [2]) is reported as 1 to 3 fold, the “ΔΔG relative to peptide C^U” value (HisKIX [2]) is reported as -2.93 kJ/mol and the Kd (HisKIX [1]) is reported as 6.7 µM.

B1: KID-B^P (peptide)
peptide: RRP[pS]YRKILNDLSSDAPGVC(acetamidofluorescein)-NH2
notes: also called KID-B (phosphorylated); CREB KID residues 130-148
In the case of B1, the Kd (HisKIX [1]) is reported as 51.6 µM.

For GASDMTYWGDDAPVRRLSFFYILLDLYLDAPGVC(acetamidofluorescein)-NH2 (designed binder, also called PPKID1 (unphosphorylated)) [PPKID1^U], the “fold change in affinity against peptide C^U” value (HisKIX [2]) was 1 to 3 fold, the “ΔΔG relative to peptide C^U” value (HisKIX [2]) was 0.418 kJ/mol and the Kd (HisKIX [1]) was 24.1 µM.

B2: PPKID5^U (designed binder)
peptide: GLSWPTYHGDDAPVRRLSFFYILLDLYLDAPGVC(Fluorescein(5-NHCOCH2))-NH2
modifications: N-terminus assumed
SMILES: CC[C@H](C)[C@H](NC(=O)[C@H](Cc1ccc(O)cc1)NC(=O)[C@H](Cc1ccccc1)NC(=O)[C@H](Cc1ccccc1)NC(=O)[C@H](CO)NC(=O)[C@H](CC(C)C)NC(=O)[C@H](CCCNC(=N)N)NC(=O)[C@H](CCCNC(=N)N)NC(=O)[C@@H](NC(=O)[C@@H]1CCCN1C(=O)[C@H](C)NC(=O)[C@H](CC(=O)O)NC(=O)[C@H](CC(=O)O)NC(=O)CNC(=O)[C@H](Cc1c[nH]cn1)NC(=O)[C@H](Cc1ccc(O)cc1)NC(=O)[C@@H](NC(=O)[C@@H]1CCCN1C(=O)[C@H](Cc1c[nH]c2ccccc12)NC(=O)[C@H](CO)NC(=O)[C@H](CC(C)C)NC(=O)CN)[C@@H](C)O)C(C)C)C(=O)N[C@@H](CC(C)C)C(=O)N[C@@H](CC(C)C)C(=O)N[C@@H](CC(=O)O)C(=O)N[C@@H](CC(C)C)C(=O)N[C@@H](Cc1ccc(O)cc1)C(=O)N[C@@H](CC(C)C)C(=O)N[C@@H](CC(=O)O)C(=O)N[C@@H](C)C(=O)N1CCC[C@H]1C(=O)NCC(=O)N[C@H](C(=O)N[C@@H](CSCC(=O)Nc1ccc2c(c1)C(=O)OC21c2ccc(O)cc2Oc2cc(O)ccc21)C(N)=O)C(C)C
notes: also called PPKID5 (unphosphorylated)
In the case of B2, the Kd (HisKIX [1]) is reported as 6.6 µM.

GMSRVTPGGDDAPVRRLSFFYILRDLYLDAPGVC(acetamidofluorescein)-NH2 (designed binder, not fully specified, also called PPKID2 (unphosphorylated)) [PPKID2^U] gave a Kd (HisKIX [1]) of 12.6 µM.

GASDMTYWGDDAPVRRL[pS]FFYILLDLYLDAPGVC(Fluorescein(5-NHCOCH2))-NH2 (designed binder, also called PPKID1 (phosphorylated)) [PPKID1^P] was tested, and the “fold enhancement in affinity upon phosphorylation” value (HisKIX [2]) was 6 to 41 fold, the “fold higher affinity than KID-B^P” value (HisKIX [2]) was 43 to 87 fold and the ΔΔG upon phosphorylation (HisKIX [2]) was -9.2 kJ/mol. It also gave a Kd (HisKIX [1]) of 0.591 µM.

For H-GASPHTSSGDDAPVRRL[pS]FFDILLDLYLDAPGVC(Fluorescein(5-NHCOCH2))-NH2 (designed binder, not fully specified, also called PPKID3 (phosphorylated)) [PPKID3^P], the “fold enhancement in affinity upon phosphorylation” value (HisKIX [2]) was 6 to 41 fold, the “fold higher affinity than KID-B^P” value (HisKIX [2]) was 43 to 87 fold and the ΔΔG upon phosphorylation (HisKIX [2]) was -4.18 kJ/mol. For the same binder, the Kd (HisKIX [1]) was 1.2 µM.

With H-GMSRVTPGGDDAPVRRL[pS]FFYILRDLYLDAPGVC(Fluorescein(5-NHCOCH2))-NH2 (designed binder, not fully specified, also called PPKID2 (phosphorylated)) [PPKID2^P] the Kd (HisKIX [1]) was 0.729 µM.

B3: PPKID5^P (designed binder)
peptide: GLSWPTYHGDDAPVRRL[pS]FFYILLDLYLDAPGVC(Fluorescein(5-NHCOCH2))-NH2
modifications: N-terminus assumed
SMILES: CC[C@H](C)[C@H](NC(=O)[C@H](Cc1ccc(O)cc1)NC(=O)[C@H](Cc1ccccc1)NC(=O)[C@H](Cc1ccccc1)NC(=O)[C@H](COP(=O)(O)O)NC(=O)[C@H](CC(C)C)NC(=O)[C@H](CCCNC(=N)N)NC(=O)[C@H](CCCNC(=N)N)NC(=O)[C@@H](NC(=O)[C@@H]1CCCN1C(=O)[C@H](C)NC(=O)[C@H](CC(=O)O)NC(=O)[C@H](CC(=O)O)NC(=O)CNC(=O)[C@H](Cc1c[nH]cn1)NC(=O)[C@H](Cc1ccc(O)cc1)NC(=O)[C@@H](NC(=O)[C@@H]1CCCN1C(=O)[C@H](Cc1c[nH]c2ccccc12)NC(=O)[C@H](CO)NC(=O)[C@H](CC(C)C)NC(=O)CN)[C@@H](C)O)C(C)C)C(=O)N[C@@H](CC(C)C)C(=O)N[C@@H](CC(C)C)C(=O)N[C@@H](CC(=O)O)C(=O)N[C@@H](CC(C)C)C(=O)N[C@@H](Cc1ccc(O)cc1)C(=O)N[C@@H](CC(C)C)C(=O)N[C@@H](CC(=O)O)C(=O)N[C@@H](C)C(=O)N1CCC[C@H]1C(=O)NCC(=O)N[C@H](C(=O)N[C@@H](CSCC(=O)Nc1ccc2c(c1)C(=O)OC21c2ccc(O)cc2Oc2cc(O)ccc21)C(N)=O)C(C)C
notes: also called PPKID5 (phosphorylated)
In the case of B3, the Kd (HisKIX [1]) is reported as 0.534 µM.

B4: PPKID8^U (designed binder)
peptide: GLSWKTDPGDDAPVRRLSFFYILLDLYLDAPGVC(Fluorescein(5-NHCOCH2))-NH2
modifications: N-terminus assumed
SMILES: CC[C@H](C)[C@H](NC(=O)[C@H](Cc1ccc(O)cc1)NC(=O)[C@H](Cc1ccccc1)NC(=O)[C@H](Cc1ccccc1)NC(=O)[C@H](CO)NC(=O)[C@H](CC(C)C)NC(=O)[C@H](CCCNC(=N)N)NC(=O)[C@H](CCCNC(=N)N)NC(=O)[C@@H](NC(=O)[C@@H]1CCCN1C(=O)[C@H](C)NC(=O)[C@H](CC(=O)O)NC(=O)[C@H](CC(=O)O)NC(=O)CNC(=O)[C@@H]1CCCN1C(=O)[C@H](CC(=O)O)NC(=O)[C@@H](NC(=O)[C@H](CCCCN)NC(=O)[C@H](Cc1c[nH]c2ccccc12)NC(=O)[C@H](CO)NC(=O)[C@H](CC(C)C)NC(=O)CN)[C@@H](C)O)C(C)C)C(=O)N[C@@H](CC(C)C)C(=O)N[C@@H](CC(C)C)C(=O)N[C@@H](CC(=O)O)C(=O)N[C@@H](CC(C)C)C(=O)N[C@@H](Cc1ccc(O)cc1)C(=O)N[C@@H](CC(C)C)C(=O)N[C@@H](CC(=O)O)C(=O)N[C@@H](C)C(=O)N1CCC[C@H]1C(=O)NCC(=O)N[C@H](C(=O)N[C@@H](CSCC(=O)Nc1ccc2c(c1)C(=O)OC21c2ccc(O)cc2Oc2cc(O)ccc21)C(N)=O)C(C)C
With B4 the “fold enhancement in affinity over KID-AB^U” value (HisKIX [2]) was at least 37 fold, the “fold enhancement in affinity over KID-B^U” value (HisKIX [2]) was at least 96 fold and the “fold enhancement in affinity over peptide C^U” value (HisKIX [2]) was 7 to 14 fold. For the same binder, the Kd (HisKIX [1]) was 3.1 µM.

B5: PPKID6 S18E (designed binder)
peptide: GISWPTFEGDDAPVRRLEFFYILLDLYLDAPGVC(Fluorescein(5-NHCOCH2))-NH2
modifications: N-terminus assumed
SMILES: CC[C@H](C)[C@H](NC(=O)CN)C(=O)N[C@@H](CO)C(=O)N[C@@H](Cc1c[nH]c2ccccc12)C(=O)N1CCC[C@H]1C(=O)N[C@H](C(=O)N[C@@H](Cc1ccccc1)C(=O)N[C@@H](CCC(=O)O)C(=O)NCC(=O)N[C@@H](CC(=O)O)C(=O)N[C@@H](CC(=O)O)C(=O)N[C@@H](C)C(=O)N1CCC[C@H]1C(=O)N[C@H](C(=O)N[C@@H](CCCNC(=N)N)C(=O)N[C@@H](CCCNC(=N)N)C(=O)N[C@@H](CC(C)C)C(=O)N[C@@H](CCC(=O)O)C(=O)N[C@@H](Cc1ccccc1)C(=O)N[C@@H](Cc1ccccc1)C(=O)N[C@@H](Cc1ccc(O)cc1)C(=O)N[C@H](C(=O)N[C@@H](CC(C)C)C(=O)N[C@@H](CC(C)C)C(=O)N[C@@H](CC(=O)O)C(=O)N[C@@H](CC(C)C)C(=O)N[C@@H](Cc1ccc(O)cc1)C(=O)N[C@@H](CC(C)C)C(=O)N[C@@H](CC(=O)O)C(=O)N[C@@H](C)C(=O)N1CCC[C@H]1C(=O)NCC(=O)N[C@H](C(=O)N[C@@H](CSCC(=O)Nc1ccc2c(c1)C(=O)OC21c2ccc(O)cc2Oc2cc(O)ccc21)C(N)=O)C(C)C)[C@@H](C)CC)C(C)C)[C@@H](C)O
For B5, the “fold decrease in affinity against PPKID6^U” value (HisKIX [3]) was 7 fold, the “ΔΔG relative to PPKID6^U” value (HisKIX [3]) was 5.02 kJ/mol and the Kd (HisKIX [1]) was 10.9 µM.

B6: PPKID4^U (designed binder)
peptide: GPSQPTYPGDDAPVRRLSFFYILLDLYLDAPGVC(Fluorescein(5-NHCOCH2))-NH2
modifications: N-terminus assumed
SMILES: CC[C@H](C)[C@H](NC(=O)[C@H](Cc1ccc(O)cc1)NC(=O)[C@H](Cc1ccccc1)NC(=O)[C@H](Cc1ccccc1)NC(=O)[C@H](CO)NC(=O)[C@H](CC(C)C)NC(=O)[C@H](CCCNC(=N)N)NC(=O)[C@H](CCCNC(=N)N)NC(=O)[C@@H](NC(=O)[C@@H]1CCCN1C(=O)[C@H](C)NC(=O)[C@H](CC(=O)O)NC(=O)[C@H](CC(=O)O)NC(=O)CNC(=O)[C@@H]1CCCN1C(=O)[C@H](Cc1ccc(O)cc1)NC(=O)[C@@H](NC(=O)[C@@H]1CCCN1C(=O)[C@H](CCC(N)=O)NC(=O)[C@H](CO)NC(=O)[C@@H]1CCCN1C(=O)CN)[C@@H](C)O)C(C)C)C(=O)N[C@@H](CC(C)C)C(=O)N[C@@H](CC(C)C)C(=O)N[C@@H](CC(=O)O)C(=O)N[C@@H](CC(C)C)C(=O)N[C@@H](Cc1ccc(O)cc1)C(=O)N[C@@H](CC(C)C)C(=O)N[C@@H](CC(=O)O)C(=O)N[C@@H](C)C(=O)N1CCC[C@H]1C(=O)NCC(=O)N[C@H](C(=O)N[C@@H](CSCC(=O)Nc1ccc2c(c1)C(=O)OC21c2ccc(O)cc2Oc2cc(O)ccc21)C(N)=O)C(C)C
notes: also called PPKID4 (unphosphorylated)
B6 gave a Kd (HisKIX [1]) of 12.1 µM.
